According to patent publication US20100293752A1:

What was measured:
[1] = target: CFP from CFP-empty plasmid (pECFP); assay: FRET by acceptor photobleaching, negative control: cotransfection of CFP- and YFP-empty plasmids
[2] = target: CFP-tagged CD44 (human full length CD44s cDNA fused in frame into pECFP, expressed in MDA-MB231 cells) (human) (UniProt P16070); assay: FRET by acceptor photobleaching, confocal microscopy, MDA-MB231 cells coexpressing CFP-CD44 and YFP-OPN
[3] = target: CFP-tagged CD44 (human full length CD44s cDNA fused in frame into pECFP, expressed in MDA-MB231 cells) (human) (UniProt P16070); assay: FRET by acceptor photobleaching in MDA-MB231 cells, in the presence of blocking antibody to αvβ3 integrin
[4] = target: CFP-tagged CD44 (human full length CD44s cDNA fused in frame into pECFP, expressed in MDA-MB231 cells) (human) (UniProt P16070); assay: FRET by acceptor photobleaching in MDA-MB231 cells, in the presence of the mutated OPN-R3 RNA aptamer (control)

Row | FRET efficiency [1] | FRET efficiency [2] | FRET efficiency [3] | FRET efficiency [4] | Substance
1 | 0.23% |  |  |  | YFP from YFP-empty plasmid (pEYFP)
2 |  | 24.2% | 19.6% | 23.1% | YFP-tagged OPN (human OPN-a cDNA fused in frame into pEYFP, expressed in MDA-MB231 cells) (from UniProt P10451 1-314) (ligand)
